# Assay results reported in US20210277061A1 (UNIVERSITY OF HONG KONG, published 2021).
# Where two headings read alike, the source gives them in different places. No end group written: not given here. *: point of attachment. Oxazole(5-CO) = O=C(c1cnco1)*; Crotonyl(E) = C/C=C/C(=O)*; 2Furoyl = O=C(c1ccco1)*; Cbz = O=C(OCc1ccccc1)*
# T1: AF9 YEATS domain, His-AF9 (1-138) (human, UniProt P42568 1-138)
# T1 construct: Expressed in E. coli; not shown: His tag
# T1 sequence (looked up): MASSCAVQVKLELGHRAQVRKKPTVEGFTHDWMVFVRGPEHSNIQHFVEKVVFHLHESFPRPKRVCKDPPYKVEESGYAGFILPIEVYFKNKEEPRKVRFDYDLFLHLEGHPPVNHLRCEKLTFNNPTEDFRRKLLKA
# T2: YEATS2 YEATS domain, His-SUMO-YEATS2 (201-332) (human, UniProt Q9ULM3 201-332)
# T2 construct: range 201-332; Expressed in E. coli; also called YEATS2 domain; not shown: His-SUMO tag
# T2 sequence (looked up): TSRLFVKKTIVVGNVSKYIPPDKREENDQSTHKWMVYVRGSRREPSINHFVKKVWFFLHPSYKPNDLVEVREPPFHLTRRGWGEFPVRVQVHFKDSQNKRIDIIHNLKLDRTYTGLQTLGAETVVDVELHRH
# T3: ENL YEATS domain, His-SUMO-ENL (1-138) (human, UniProt Q03111 1-138)
# T3 construct: Expressed in E. coli; not shown: His-SUMO tag
# T3 sequence (looked up): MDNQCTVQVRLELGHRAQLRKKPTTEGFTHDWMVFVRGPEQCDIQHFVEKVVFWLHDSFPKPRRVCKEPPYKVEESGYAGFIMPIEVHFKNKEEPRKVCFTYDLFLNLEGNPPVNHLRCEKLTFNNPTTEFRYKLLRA
# B1: compound 1 (XL-01) (peptide)
# peptide: KQTARKSTGG-NH2
# modifications: not fully specified (residue 6); also: Lys6 acylated with group R, structure drawing only
# notes: also called 4.1
# B2: compound 26 (XL-07j) (peptide)
# peptide: Cbz-QTARK(2Furoyl)-NH2
# SMILES: C[C@H](NC(=O)[C@@H](NC(=O)[C@H](CCC(N)=O)NC(=O)OCc1ccccc1)[C@@H](C)O)C(=O)N[C@@H](CCCNC(=N)N)C(=O)N[C@@H](CCCCNC(=O)c1ccco1)C(N)=O
# notes: also called 4.7j
# B3: compound 85 (positive control), H3K9cr peptide (peptide)
# peptide: KQTARK(Crotonyl(E))STGG-NH2
# modifications: N-terminus assumed
# SMILES: C/C=C/C(=O)NCCCC[C@H](NC(=O)[C@H](CCCNC(=N)N)NC(=O)[C@H](C)NC(=O)[C@@H](NC(=O)[C@H](CCC(N)=O)NC(=O)[C@@H](N)CCCCN)[C@@H](C)O)C(=O)N[C@@H](CO)C(=O)N[C@H](C(=O)NCC(=O)NCC(N)=O)[C@@H](C)O
# B4: compound 43 (competitor R8-K) (peptide)
# peptide: Cbz-QTAKK(2Furoyl)-NH2
# SMILES: C[C@H](NC(=O)[C@@H](NC(=O)[C@H](CCC(N)=O)NC(=O)OCc1ccccc1)[C@@H](C)O)C(=O)N[C@@H](CCCCN)C(=O)N[C@@H](CCCCNC(=O)c1ccco1)C(N)=O
# notes: Full structure only as drawing
# B5: compound 45 (competitor R8-Q) (peptide)
# peptide: Cbz-QTAQK(2Furoyl)-NH2
# SMILES: C[C@H](NC(=O)[C@@H](NC(=O)[C@H](CCC(N)=O)NC(=O)OCc1ccccc1)[C@@H](C)O)C(=O)N[C@@H](CCC(N)=O)C(=O)N[C@@H](CCCCNC(=O)c1ccco1)C(N)=O
# notes: as for B4
# Legend:
# [1] = molecular target: T1, AF9 YEATS domain, His-AF9 (1-138); assay: photo-cross-linking-based competition against the photoaffinity probe (probe 1) on AF9 YEATS domain, in-gel fluorescence
# [2] = molecular target: T1, AF9 YEATS domain, His-AF9 (1-138); assay: photo-cross-linking competition vs photoaffinity probe, in-gel fluorescence
# [3] = molecular target: T1, AF9 YEATS domain, His-AF9 (1-138); assay: method and target not named in the sentence (AF9 YEATS by context)
# [4] = molecular target: T2, YEATS2 YEATS domain, His-SUMO-YEATS2 …; assay: photo-cross-linking-based competition against the photoaffinity probe on the YEATS2 YEATS domain, in-gel fluorescence
# [5] = molecular target: T1, AF9 YEATS domain, His-AF9 (1-138); assay: photo-cross-linking competition vs photoaffinity probe, in-gel fluorescence; remark: listed apart in the source
# [6] = molecular target: T4, Gas41 YEATS domain, His-Gas41 (15-159) (human, UniProt O95619 15-159); assay: as above
# T4 construct: Expressed in E. coli; not shown: His tag
# T4 sequence (O95619 15-159 limits assumed): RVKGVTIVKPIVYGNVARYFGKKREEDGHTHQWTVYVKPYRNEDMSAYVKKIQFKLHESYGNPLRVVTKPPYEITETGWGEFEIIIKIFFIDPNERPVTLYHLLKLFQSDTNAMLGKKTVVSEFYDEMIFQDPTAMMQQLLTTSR
# [7] = molecular target: T3, ENL YEATS domain, His-SUMO-ENL (1-138); assay: as above
# [8] = molecular target: T2, YEATS2 YEATS domain, His-SUMO-YEATS2 …; assay: as above
# [9] = molecular target: T4, Gas41 YEATS domain, His-Gas41 (15-159); assay: as above; remark: listed apart in the source
# [10] = molecular target: T3, ENL YEATS domain, His-SUMO-ENL (1-138); assay: as above; remark: listed apart in the source
# [11] = molecular target: T2, YEATS2 YEATS domain, His-SUMO-YEATS2 …; assay: as above; remark: listed apart in the source
# [12] = molecular target: T1, AF9 YEATS domain, His-AF9 (1-138); assay: ITC
# [13] = molecular target: T1, AF9 YEATS domain, His-AF9 (1-138); assay: ITC; remark: listed apart in the source
# [14] = molecular target: T1, AF9 YEATS domain, His-AF9 (1-138); assay: photo-cross-linking competition screen at 0.3 µM, in-gel fluorescence
Binder,IC50 [2] [µM],Kd [3] [µM],IC50 [5] [µM],IC50 [6] [µM],IC50 [8] [µM],IC50 [9] [µM],IC50 [10] [µM],IC50 [11] [µM],binding result [14],other results
B1,27.9,,,,,,,,,IC50 [1]: 31.8 µM
B2,0.26,0.33,0.26,123,42.4,123,1.3,42.4,,IC50 [4]: 42.2 µM; IC50 [7]: 1.3 µM
Cbz-QTARK(Oxazole(5-CO))-NH2 (also called 4.13a) [compound 27 (XL-13a)],0.24,0.131,0.24,14.5,98.7,14.5,,98.7,,
B3,6,,,,,,52.7,,,Kd [12]: 14.7 µM; N (sites) [12]: 0.96 sites; ΔH [12]: -11.9 kcal/mol; ΔS [12]: -17.8 cal/mol/deg; Kd [13]: 14.8 µM
B4,,,,,,,,,binds,
B5,,,,,,,,,binds,
